In article doi:10.1101/202184 (bioRxiv, 2017):

T1: SecY (wild type, subunit of Escherichia coli SecYEG) (E. coli, UniProt P0AGA2 1-443)
T1 sequence: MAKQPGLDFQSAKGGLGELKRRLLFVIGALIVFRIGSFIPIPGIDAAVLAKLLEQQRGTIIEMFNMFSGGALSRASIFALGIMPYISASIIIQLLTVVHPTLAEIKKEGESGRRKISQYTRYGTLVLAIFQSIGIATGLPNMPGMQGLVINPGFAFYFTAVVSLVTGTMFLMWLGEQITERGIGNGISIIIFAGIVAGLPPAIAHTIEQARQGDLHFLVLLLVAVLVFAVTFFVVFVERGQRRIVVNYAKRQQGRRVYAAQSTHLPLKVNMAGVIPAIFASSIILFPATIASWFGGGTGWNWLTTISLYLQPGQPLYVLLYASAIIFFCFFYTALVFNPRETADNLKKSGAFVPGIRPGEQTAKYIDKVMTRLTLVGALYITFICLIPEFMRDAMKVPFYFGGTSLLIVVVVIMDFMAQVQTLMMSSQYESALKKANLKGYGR

B1: SecE (subunit of Escherichia coli SecYEG) (natural protein)
chain: MSANTEAQGSGRGLEAMKWVVVVALLLVAIVGNYLYRDIMLPLRALAVVILIAAAGGVALLTTKGKATVAFAREARTEVRKVIWPTRQETLHTTLIVAAVTAVMSLILWGLDGILVRLVSFITGLRF

Legend:
[1] = biological target: T1, SecY (wild type, subunit of Escherichia …); test: native MS
[2] = biological target: B1; test: native MS

binding result [1] | binding result [2] | Binder
binds | binds | SecG (subunit of Escherichia coli SecYEG) (natural protein) MYEALLVVFLIVAIGLVGLIMLQQGKGADMGASFGAGASATLFGSSGSGNFMTRMTALLATLFFIISLVLGNINSNKTNKGSEWENLSAPAKTEQTQPAAPAKPTSDIPN
binds | – | B1
